Here are results for two molecules from paper PMC9800568, “The permanently chaperone-active small heat shock protein Hsp17 from Caenorhabditis elegans exhibits topological separation of its N-terminal regions” (The Journal of Biological Chemistry, 2022).

Data set [1] deals with Hsp17 (small heat shock protein Hsp17 from Caenorhabditis elegans) (C. elegans) (UniProt Q20660). The data set can be described thus: cryo-EM structure; 2.5 mg/ml Hsp17, Titan Krios 300 kV, tetrahedral symmetry, pseudo-atomic model fitted.
Data set [2] has the same target. Description: SEC; SEC-HPLC, Superdex 200 Increase 10/300 GL, PBS, 0.5 ml/min, room temperature, 50 μl of 50 μM protein. In general terms: Size exclusion chromatography separates by hydrodynamic size, large species first.
Data set [3] deals with the molecule itself. The data set is described as above.

In general, stoichiometry N refers to the number of molecules, sites or subunits per partner or assembly. With “Hsp17 (small heat shock protein Hsp17 from Caenorhabditis elegans) (from UniProt Q20660 1-149) (natural protein)”, the stoichiometry N in data set [1] and in data set [2] was 24 throughout.

B1: Hsp17ΔNTR (Hsp17 variant lacking the N-terminal region) (domain or fragment, C. elegans)
chain: MGDAIDVVNNDQEYNVSVDVSQFEPEELKVNIVDNQLIIEGKHNEKTDKYGQVERHFVRKYNLPTGVRPEQIKSELSNNGVLTVKYEKNQEQQPKSIPITIVPKRN
notes: Hsp17, C. elegans, from aa position 45 to the C-terminus (ACD and CTR); The full-length protein is modelled to residue 148; also called NTR-truncated variant; truncation variant; source: E. coli BL21 (DE3), tag-free, purified (Sepharose Q FF, Superdex 75 pg)
With B1, in data set [3], the “stoichiometry N” value was found to be 3.5 monomers.
